Experimental data: the supplement of paper PMC9170038

Tested on: MS2 coat protein
Assay: apparent KD of MS2 coat protein; designed switch direction (-1 OFF switch, 1 ON switch): -1; higher = weaker reporter binding
How it was run: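 The apparent KD reported per design is the median over clusters of curve fits to normalised cluster fluorescence. The RNA switches were transcribed on Illumina chips by stalled E. coli RNA polymerase. SNAP-549-labelled MS2 coat protein was titrated from 0.7 or 1.5 nM, doubling up to 3 µM, in Tris-HCl pH 7.5 buffer containing KCl, MgCl2, BSA, DTT, tRNA and Tween-20, with no input, 200 uM small-molecule ligand, or an oligonucleotide input.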

[1] = input ligand: microRNA oligo, concentration not stated
[2] = Eterna round: R95, input ligand: FMN 200 uM
[3] = Eterna round: R95, input ligand: microRNA oligo, concentration not stated
[4] = Eterna round: R95, input ligand: none

Sequence | apparent KD of MS2 coat protein (input ligand: FMN 200 uM) [µM] | apparent KD of MS2 coat protein (input ligand: none) [µM] | apparent KD of MS2 coat protein [1] [µM] | apparent KD of MS2 coat protein [2] [µM] | apparent KD of MS2 coat protein [3] [µM] | apparent KD of MS2 coat protein [4] [µM]
UGUGCUUCAGGAUAUACGUGACGUCCGUGAGGACGAAGGUUACAUGAGGAUCACCCAUGUAGAAGGGAAGUACU [Mat - Exclusion 2 - JL Mod - D30] (Eterna round: R97, puzzle: Exclusion 2) | 0.11 | 0.0202 | – | – | – | –
CUGGAGUCAGGAUAUGACGCAGUCCGCCCAAGUGGCGGAAAUCAGAAGGGACUUGAGGAUCACCCAAGUAAAAG [Resorama] (Eterna round: R97, puzzle: Exclusion 4) | 0.0268 | 0.0298 | – | – | – | –
UAAGGGUGCGUAGGAUAUCGCGGCCGAAUAAAGCGAGAAGGACGCCCGAAUGGGUCGUCCAACAUGAGGAUCACCCAUGUAAAC [Soerre] (Eterna round: R96, puzzle: Exclusion NG 1) | 0.14 | 0.0502 | 0.0365 | – | – | –
ACUACUAACACGAAAGUGUUAGUACAAUAAGCUUGUGAAACAUGAGGAUCACCCAUGUCCUCAUAAGCUCGUCUUAA [salish99_TOv2_r3_012] (puzzle: Sensor v3, turn-off variant 2) | – | – | – | 0.0144 | 0.211 | 0.0138
GGACCACAUGAGGAUCACCCAUGUCAGGAUAUGACGGCGUCGGCGAAAGCGGAGGCGGUCAGAAGGGACGGAAA [AK-MS2ROC-r4-exclusion1-9.0] (Eterna round: R97, puzzle: Exclusion 1) | 0.0846 | 0.034 | – | – | – | –
ACAAGCUUAGGUAAUCAUAACAUGAGGAUCACCCAUGUUCGUCUUAUAAAAAUAAAAAUAAAAAACAAAAAAUAAAA [Sensor V2: 65] (Eterna round: R96, puzzle: Sensor v2, turn-off variant) | 0.0333 | 0.0338 | 0.0706 | – | – | –
AAUGUUGUUGUGAGGAUAUCGUAGUUAUUUUGAAACGAGAAGGCACAUGAGGAUCACCCAUGUUUGUUGAUGGU [JR_BMOE4_Sub061] (puzzle: Brourd's mod of Exclusion 4) | – | – | – | – | 0.0208 | –
AUGGUUAGGUCAGGAUAUCGUUGAUUGAAUAGUAUGAUUUACAUGAGGAUCACCCAUGUUAUAUACGAGAAGGGACUUUAUCAU [JR_ExcNG2_Sub023] (Eterna round: R96, puzzle: Exclusion NG 2) | 0.00977 | 0.0186 | 0.00877 | – | – | –
UUUUUAUAUGAAGGAUAUACUUAACAUGAGGAUCACCCAUGUGGUGUUGUGAGUGAGUGAGUUUAGUAGAAGGUCAAUUAUAUU [JMF's solution 13] (Eterna round: R96, puzzle: Exclusion NG 2) | 0.574 | 0.35 | 0.316 | – | – | –
AUCAAGGGAGGAUAUACAGUGAACAGUACUAGUCAGGCGGCACAUGAGGAUCACCCAUGUAGAAGGCCCAUGAU [Eternabot (L1) Solution 70] (Eterna round: R97, puzzle: Exclusion 2) | 0.08 | 0.0248 | – | – | – | –
GAUUAUGCGAGCUUUAGGGACAUGAGGAUCACCCAUGUUCGUCUUAUUGGUCUAGAUACACUGACAUACCUAAAUCU [JMF 58] (puzzle: Sensor v3, turn-off variant 1) | – | – | – | 0.0148 | 0.0191 | 0.014
UUUACAAGCUUAUGAUCCCACAUGAGGAUCACCCAUGUUGCUGCCGGUGACGGUAGCAUAACAUAUGCUCGUCUUAU [JL TOV1 3.57] (Eterna round: R97, puzzle: Sensor, turn-off variant 1) | 1.57 | 1.84 | – | – | – | –
UAAGAUUAUUGAGGAUAUGGUAAUUUUUAUUAACCAGAAGGCAAACUCAACAUGAGGAUCACCCAUGUAUAAAGGGUAUUAGUU [JR_ExcNG1_Sub096] (Eterna round: R96, puzzle: Exclusion NG 1) | – | – | 0.0512 | – | – | –
AAGUUACAUGAGGAUCACCCAUGUGAGGAUAUGAGUCAGUCACGGUGACGUGGCUGACUCAGAAGGCACAAUGG [JL-ex1-4.41 salish99 mod] (Eterna round: R97, puzzle: Exclusion 1) | 0.043 | 0.29 | – | – | – | –
AGCUGUGGCCGAGGAUAUCUACAUGAGGAUCACCCAUGUAAAGGGUGUAUCGGGAAAACCUCGAUGGAGAAGGCGGUCUCAGCA [Eli eng2 - 047] (Eterna round: R96, puzzle: Exclusion NG 2) | 0.0955 | 0.296 | 0.0453 | – | – | –
AAUUACAAGCAAAGAUCCUACAUGAGGAUCACCCAUGUGCUCGUCUUAUAAAGUACUAUCACGAAAGUGAUAGUACA [Mat - Sensor v3 - turn-off var 1 - Eli Mod - D76] (puzzle: Sensor v3, turn-off variant 1) | – | – | – | 0.222 | 0.0135 | 0.232
UUGUACCGGUGAGGAUAUCGUUGAUAGAACUUUAUGAUAUACAUGAGGAUCACCCAUGUUACUUUCGAGAAGGCAUCGGAUUAU [ExNG2 6th] (Eterna round: R96, puzzle: Exclusion NG 2) | 0.0123 | 0.0218 | 0.0103 | – | – | –

Sequence | apparent KD of MS2 coat protein (input ligand: FMN 200 uM) [µM] | apparent KD of MS2 coat protein (input ligand: none) [µM] | apparent KD of MS2 coat protein [1] [µM] | apparent KD of MS2 coat protein [2] [µM] | apparent KD of MS2 coat protein [3] [µM] | apparent KD of MS2 coat protein [4] [µM]
GGCCUUCCGCGAGCUUUUUACAUGAGGAUCACCCAUGUGGUUUUUAGUCUUAUCCGGCCGGCCGUGUGGCCGGCCGG [-32.9, -53.8, A 12%] (Eterna round: R97, puzzle: Sensor, turn-off variant 1) | 0.0261 | 0.0304 | – | – | – | –
CCCGCAGGCUUUUUGCUCGACAUGAGGAUCACCCAUGUUGAAUGGGUUGUGUGUGUGUGAUACAUAUAUAUGGUCCU [-26.2, -50.8 kcal, A 19%] (Eterna round: R97, puzzle: Sensor, turn-off variant 1) | 0.242 | 0.349 | – | – | – | –
UUGAUUCAUUCCUCUAUAAACAUGAGGAUCACCCAUGUAAGUGAGGAUAUAGUUGGAGUUGUAUACUAGAAGGCACUUAGUUUU [JR_ExcNG3_Sub048] (Eterna round: R96, puzzle: Exclusion NG 3) | 0.026 | 0.013 | 0.00829 | – | – | –
UCACGGGACUGAGGAUAUACAUGAACCAUGGUUGUAGAAGGCAGAAGGUUGGAUCAUACACUAAACAUGAGGAUCACCCAUGUU [JR_ExcNG1_Sub028] (Eterna round: R96, puzzle: Exclusion NG 1) | 0.0164 | 0.0218 | 0.0157 | – | – | –
CCGUGCACGCUGCGGUCCUACAUGAGGAUCACCCAUGUGGUCUGGUGGCGUGGGUCGCCGGACUUGGCUCGUCUUGU [salish99_S_TOV1_R5_020] (Eterna round: R97, puzzle: Sensor, turn-off variant 1) | 0.0197 | 0.0205 | – | – | – | –
CAGUACUGAGGAUAUACAUGAGGAUCACCCAUGUGUAGAUGAAAAUUAAUUUUAUUAUGUAGAAGGCGGUGCUG [JR_Ex3_Sub045] (Eterna round: R97, puzzle: Exclusion 3) | 0.0851 | 0.0233 | – | – | – | –
CCCAGUUAUUCAGGAUAUUGUACAUGAGGAUCACCCAUGUAAUAAAUGAGGAUUUCGGGUGUCUACAAGAAGGGAAGGAUAGGC [Ostracism 19 - Jieux - Exclusion NG 2] (Eterna round: R96, puzzle: Exclusion NG 2) | 0.0265 | 0.0293 | 0.0238 | – | – | –
AUAAAUAACGUUAGGAUAUAUUUUGUGACAUCAGGAUAGAAGGAACAUGAGGAUCACCCAUGUGAUUCUGUGAA [Maenin] (puzzle: Brourd's mod of Exclusion 4) | – | – | – | 0.0466 | 0.0372 | 0.0403
GGUCCACAUGAGGAUCACCCAUGUUAGGAUAUCUCCUGCCUCCUAAAUGGAAGCAGACAGAGAAGGAACAUCAA [Soanatra] (Eterna round: R96, puzzle: Exclusion 1) | 0.113 | 0.0254 | 0.0218 | – | – | –
GGGAAGGGAGGAUAUGAGGAAGAGAACAUGAGGAUCACCCAUGUGAGGCCUCAGGAUCGAUCAGAAGGCCCGAUCC [AK-MS2ROC-r4-exclusion5-15] (Eterna round: R97, puzzle: Exclusion 5) | 0.297 | 0.142 | – | – | – | –
UCUCUGUGAGGAUAUUGAACGACGCCGCUAACGGGCUUGCACAAGAAGGCACAUGAGGAUCACCCAUGUCCCGA [EX4 B.28] (Eterna round: R97, puzzle: Exclusion 4) | 0.0291 | 0.0207 | – | – | – | –
UGGUGGAAGCAGGAUAUGCUUGUAUUAUUGAUAGCAGAAGGGCUAACAUGAGGAUCACCCAUGUAAGAGGUGUA [JR_E6_Sub057] (puzzle: Exclusion 6) | – | – | – | 0.19 | 0.203 | 0.238
AGUUGGCGAGGAUAUACAUGAGGAUCACCCAUGUGAGAGAUACUGGUGAGGUCGAUUAGUAGAAGGCGCUGACA [Mat X3R4 m15] (Eterna round: R97, puzzle: Exclusion 3) | 0.137 | 0.654 | – | – | – | –
GUUCUUCCUGUAAGGAUAUCCAUGUGUCGGUUUAUGGAGAAGGUACAUGAGGAUCACCCAUGUCACCCGCGUUA (Eterna round: R97, puzzle: Brourd's mod of Exclusion 4) | 0.0459 | 0.0185 | – | – | – | –
AAAAGGUGAGGAUAUUCGGCGCCGGGAAGGUUGGUGCGGAUGAAGAAGGCACAUGAGGAUCACCCAUGUAAUAA [Excls4-I] (puzzle: Exclusion 4) | – | – | – | – | 0.0435 | –
UCUCUGCGAGGAUAUACGUUUGCGCGCUUUCGUUUGCGCGUACAUGAGGAUCACCCAUGUAGAAGGCGCGUUUC [Apr-15 SS2-9] (puzzle: Exclusion 2) | – | – | – | – | 0.0126 | –
